Source: patent US20230398232A1 (NAVROGEN, published 2023)

Tests used:
[1] = target: T1, human serum albumin (human, UniProt P02768 25-609); experiment: ELISA, plate coated with 1 µg/mL HSA, probed with antibody
T1 construct: Negative control, coated at 1 ug/mL; also called HSA
Protocol: Antibodies were tested for uptake by incubating each with the human ovarian cancer cell line OVCAR3 that express mesothelin and membrane bound CA125. The parental line was used to generate an isogenic CA125 knockdown line via shRNA (referred to as OVCAR3-KO). Both Ab-3 and Ab-4 uptake were measured in replica in black 96-well microplates over the course of 24 hours measuring intracellular fluorescence on a Varioskan™ plate reader. […] Statistical analysis was done using a two-sided student's T-test.
Several studies have reported that antibodies that are bound by CA125 are negatively affected in eliciting humoral mediated immune killing as well as ADC-mediated killing of target cells (Kline J B, et. al. OncoTarget 8:52045-52060, 2017; Kline J B, et al. Eur J Immunol 48:1872-1882, 2018; Kline J B, et al. J Clin Oncol 5:15, 2018; Nicolaides N C, et al. Cancer Biol Ther 13:1-22, 2018; Nicolaides et. al. USPTO application 1698444). In an attempt to identify anti-mesothelin antibodies that naturally are not bound by CA125, we obtained a number of anti-mesothelin antibodies from academic and commercial sources (National Cancer Institute, Creative Biolabs, Novus, etc.) and tested them for CA125 binding. […] Recombinant mesothelin was used as a positive control and human serum albumin (HSA) was used as negative control. […]

[2] = target: T2, soluble human CA125 protein (human, UniProt Q8WXI7 1-14451, limits assumed); experiment: ELISA, plate coated with 15 KU/mL soluble CA125, probed with antibody, anti-Fc-HRP detection
T2 construct: Coated on the ELISA plate at 15 KU/mL; also called MUC16/CA125; soluble CA125
Protocol: FIG. 1A. Screening for anti-mesothelin antibodies not bound by the immunosuppressive CA125 protein; identification of MES-1 antibody (SEQ ID NO: 1 and 2). Briefly, 96-well ELISA plates were coated with 15 KU/mL of soluble CA125, 1 μg/mL of recombinant human mesothelin protein as a positive control and 1 μg/mL of human serum albumin (HSA) as a negative control and probed with 2.5 μg/mL of different anti-mesothelin antibodies to determine if they are bound by CA125. Wells were washed and detected for binding via a secondary anti-human or anti-rodent Fc-horseradish peroxidase (HRP) conjugated antibody and 3,3′,5,5′-Tetramethylbenzidine (TMB) substrate. Reactions were stopped with 0.1N H₂SO₄ and wells quantified using a multi-well plate reader (Varioskan™, ThermoFisher) at 450 nm. As shown, the antibody MES-1 consisting of SEQ ID NOs: 1 and 2 [Ab-3 (lane 3)] was not bound by CA125 while the other four anti-mesothelin antibodies tested were all bound by CA125. Values were determined from the average of triplicate wells. Statistical analysis was done using student's T-test. FIG. 1B. […] Both Ab-3 and Ab-4 uptake were measured in replica in black 96-well microplates over the course of 24 hours measuring intracellular fluorescence on a Varioskan™ plate reader. […]

binding result [1]: no binding (tested: 2.5 µg/mL)
binding result [2]: no binding (tested: 2.5 µg/mL)
B1: MES-1 antibody (antibody, human IgG1, kappa, V domains shown)
VH: EVQLVESGGGLVQPGGSLRLSCAASGFDLGFYFYACWVRQAPGKGLEWVSCIYTAGSGSTYYASWAKGRFTISRDNSKNTLYLQMNSLRAEDTAVYYCARSTANTRSTYYLNLWGQGTLVTVSS
VL: DIQMTQSPSSLSASVGDRVTITCQASQRISSYLSWYQQKPGKVPKLLIYGASTLASGVPSRFSGSGSGTDFTLTISSLQPEDVATYYCQSYAYFDSNNWHAFGGGTKVEIKR
notes: For the uptake assay the antibody carried the pHrodo dye; also called meso-Ab3; Ab-3
